B1: 3G3 conformational scan 29: CLGVL-aiB-KLC (peptide)
peptide: CLGVL[Aib]KLC
modifications: not fully specified (bridges); printed as CLGVL-aiB-KLC; cysteine pairing not given here
B2: 3G3 conformational scan 31: CLGVLGK-aiB-C (peptide)
peptide: CLGVLGK[Aib]C
modifications: not fully specified (bridges); printed as CLGVLGK-aiB-C; cysteine pairing not given here
B3: 3G3 conformational scan 24: CLGVLGK-pG-C (peptide)
peptide: CLGVLGK[Phg]C
modifications: not fully specified (bridges); printed as CLGVLGK-pG-C; cysteine pairing not given here
B4: 3G3 conformational scan 30: CLGVLG-aiB-LC (peptide)
peptide: CLGVLG[Aib]LC
modifications: not fully specified (bridges); printed as CLGVLG-aiB-LC; cysteine pairing not given here
B5: 3G3 conformational scan 21: CLGV-pG-GKLC (peptide)
peptide: CLGV[Phg]GKLC
modifications: not fully specified (bridges); printed as CLGV-pG-GKLC; cysteine pairing not given here
B6: 3G3 conformational scan 25 (alpha Me AA): C-aiB-GVLGKLC (peptide)
peptide: C[Aib]GVLGKLC
modifications: not fully specified (bridges); printed as C-aiB-GVLGKLC; cysteine pairing not given here
B7: 3G3 conformational scan 27: CLG-aiB-LGKLC (peptide)
peptide: CLG[Aib]LGKLC
modifications: not fully specified (bridges); printed as CLG-aiB-LGKLC; cysteine pairing not given here
B8: 3G3 conformational scan 20: CLG-pG-LGKLC (peptide)
peptide: CLG[Phg]LGKLC
modifications: not fully specified (bridges); printed as CLG-pG-LGKLC; cysteine pairing not given here
B9: 3G3 conformational scan 26: CL-aiB-VLGKLC (peptide)
peptide: CL[Aib]VLGKLC
modifications: not fully specified (bridges); printed as CL-aiB-VLGKLC; cysteine pairing not given here
B10: 3G3 conformational scan 23: CLGVLG-pG-LC (peptide)
peptide: CLGVLG[Phg]LC
modifications: not fully specified (bridges); printed as CLGVLG-pG-LC; cysteine pairing not given here

Experimental findings from patent US6410775 are described below.

Bridge positions count the residues as written; N and C are the ends. Square brackets hold non-standard residues; d marks the D form. Ends that are not written are not given here. Phg = N[C@H](C(=O)O)c1ccccc1; Orn = NCCC[C@H](N)C(=O)O; Aib = CC(C)(N)C(=O)O A value given as a limit tells only on which side of the number the result lay.

In the assay the target is ACA-6501 aPL antibody. Briefly: competitive ELISA I50; antibody not given, ACA-6501 serum on CL/β2-GPI assumed (Ex. 4B).
XLGVLGKLC (homocysteine (Hc) at position 1; cyclic thioether) [HCTE, LJP 699 (cyclic thioether analog of 3G3, Hc-LGVLGKL-C)] showed an IC50 of 46 µg/mL.
B1 yielded an IC50 of 110 µg/mL.
Regarding B2, the IC50 is greater than 470 µg/mL.
Then CLPVLGKLC [3G3 conformational scan 12 (Pro scan): …], with 340 µg/mL.
Then CLGVLGKGC [3G3 Gly scan 5: …], with 500 µg/mL; and GPCLGVLGKLCPG [3G3 truncation 2: …], with 180 µg/mL.
Take CLGVLGRLC [3G3 basic amino acid 1: …]: the concentration for half-maximal inhibition (IC50) worked out at 160 µg/mL.
Then CLGVLGKPC [3G3 conformational scan 17 (Pro scan): …], with 550 µg/mL; and B3, with 80 µg/mL.
Turning to B4, the IC50 came to 460 µg/mL.
As for CLGALGKLC [3G3 Ala scan 3: …], the IC50 came out at 260 µg/mL. This IC50 is about 1.8-fold lower than that of the molecule before.
Then B5, with 35 µg/mL; and CVGVLGKLC [3G3 branched aliphatic 2: …], with 130 µg/mL.
Then XLGVLGKLX (homocysteine (Hc) at positions 1 and 9; cyclic thioether) [HHTE, LJP 703 (cyclic thioether analog of 3G3, Hc-LGVLGKL-Hc)], with 80 µg/mL; and CLGVLPKLC [3G3 conformational scan 15 (Pro scan): …], with 350 µg/mL; and PCLGVLGKLCPG [3G3 truncation 3: …], with 420 µg/mL.
Then CLGVLGKLC (disulfide 1-9 (inferred)) [LJP 690 …], with 10 µg/mL; and CLGVLGKAC [3G3 Ala scan 7: …], with 360 µg/mL.
In turn, C[Phg]GVLGKLC (not fully specified (bridges); cysteine pairing not given here) [3G3 conformational scan 18: C-pG-GVLGKLC] came in with an IC50 of 130 µg/mL.
Then [dP]CLGVLGKLC (not fully specified (bridges); cysteine pairing not given here) [3G3 D amino acids 1: dP-…], with 120 µg/mL.
On to CGGVLGKLC [3G3 Gly scan 1: …], for which the IC50 stood at 310 µg/mL.
Then CLGVLGKLX (homocysteine (Hc) at position 9; cyclic thioether) [CHTE, LJP 702 (cyclic thioether analog of 3G3, C-LGVLGKL-Hc)], with 92 µg/mL; and B6, with 370 µg/mL.
With CLGVLGPLC [3G3 conformational scan 16 (Pro scan): …] the figure was 160 µg/mL; with B7, 110 µg/mL; with CLAVLGKLC [3G3 Ala scan 2: …], 170 µg/mL.
Molecule CAGVLGKLC [3G3 Ala scan 1: …] showed a half-maximal inhibitory concentration (IC50) of 200 µg/mL.
CLGPLGKLC [3G3 conformational scan 13 (Pro scan): …] showed an IC50 of 180 µg/mL.
Regarding CPGVLGKLC [3G3 conformational scan 11 (Pro scan): …], the half-maximal inhibitory concentration (IC50) was 160 µg/mL. The IC50 values of the last two molecules are within 1.5-fold of each other.
Then CLGVLAKLC [3G3 Ala scan 5: … (peptide 925)], with 40 µg/mL; and B8, with 70 µg/mL.
Then CLGVLGKLCPG [3G3 truncation 4: …], with 460 µg/mL; and B9, with 80 µg/mL; and CLGVLGKLC (cyclic thioether in place of the disulfide) [CCTE, LJP 698 (cyclic thioether analog of 3G3, C-LGVLGKL-C)], with 110 µg/mL.
Then AGPCLGVLGKLCG [3G3 truncation 5: … (as printed)], with 450 µg/mL; and CL[Phg]VLGKLC (not fully specified (bridges); cysteine pairing not given here) [3G3 conformational scan 19: CL-pG-VLGKLC], with 70 µg/mL; and CIGVLGKLC [3G3 branched aliphatic 1: …], with 60 µg/mL.
The molecule CLGVLG[Orn]LC (not fully specified (bridges); cysteine pairing not given here) [3G3 basic amino acid 2: CLGVLG-Or-LC] showed an IC50 of 40 µg/mL. Compared with the last molecule, the IC50 is about 1.5-fold lower.
In turn, B10 registered an IC50 of 230 µg/mL.
